Consider one substance from PMC5773547.

This assay has as its target His-tagged recombinant CHIKV nsP2-NT (1-454) (Chikungunya virus strain S 27).

Consider “His-tagged recombinant CHIKV nsP1-WT (1-535) (from UniProt Q8JUX6 1-535) (enzyme)”, for which the ATPase activity of nsP2-NT (0.2 μg) with nsP1-WT (0.6 μg) against nsP2-NT alone, TLC assay with [γ-P32] ATP, release of free Pi was found to be 1.5 fold and the ATPase activity of nsP2-NT (1 μg) with nsP1-WT (1 μg), colorimetric malachite green assay, Pi release (approximately 86 μM for nsP2-NT alone) came to 174 µM.
